Source: US20050158309A1
[ ]: non-standard residue; d: D form. pGlu = O=C1CC[C@@H](C(=O)O)N1

Tests used:
[1] = target: KLII-2 antiserum against GnRH-II; assay: RIA cross-reactivity with antiserum KLII-2 (relative to GnRH-II)
[2] = target: aCII6 polyclonal antibody against GnRH-II; assay: RIA cross-reactivity with antibody aCII6 (relative to GnRH-II)

B1: Salmon GnRH (sGnRH) (peptide)
peptide: [pGlu]HWSYGWLPG-NH2
SMILES: CC(C)C[C@H](NC(=O)[C@H](Cc1c[nH]c2ccccc12)NC(=O)CNC(=O)[C@H](Cc1ccc(O)cc1)NC(=O)[C@H](CO)NC(=O)[C@H](Cc1c[nH]c2ccccc12)NC(=O)[C@H](Cc1c[nH]cn1)NC(=O)[C@@H]1CCC(=O)N1)C(=O)N1CCC[C@H]1C(=O)NCC(N)=O
Work on B1 yielded a cross-reactivity [1] of 0.003% and a cross-reactivity [2] of 0.013%.
